pKd: −log10 of the molar value.

Consider 1 substance from article PMC7793522.

This assay deals with synthetic peptide on H-2Kb (mouse). The assay can be described thus: data from [108]; method not given; soluble, other.

As a reminder, the pKd is the Kd on a negative log10 scale, so that one unit is a factor of ten. Higher therefore signals a low Kd. In the case of YAe62, the negative logarithm of the Kd (pKd) was 4.82.
